Assay results: PMC6500386 (Biochemistry, 2019)

Molecular target: the molecule itself
Assay: SEC + native gel or EMSA

B1: Bmp3, FAD-dependent prolyl-S-Bmp1(CP) oxidase (enzyme, Marinomonas mediterranea MMB-1)
chain: MNFEWTHEQAELFEHALRFGKELSAPLQEDNGFPRDNWNALGDFGYFGLPIPEKYAKDGSGFDILTTIKIIEGLGQSCTDTGLLFAGAAHTFACSMPILEHGSETLKHQLLPDLATGRKIAANAISEASAGSDISNLATTAQKEGDYYVLNGGKSYVTNGSIADYYVVYATTNKKHGYLGQTAFVVPRNTPGISVGNDYHKLGLRSAPLNQVFFDNCTIHKDYALGREGQGARIFAASMDWERCCLFAIFVGAMQRDLNQCIEYANTRMQGDKTISRFQAVSHRIADMGVRLESARLMLYYAAWQKSQDVDNTKAVAMSKLAISEAFVQSGIDSIRVHGALGYLDEGRVNNSIKDALGSVLFSGTSDIQRELICNRLGLL
stoichiometry N: 4
